In publication PMC4338043 one finds stoichiometry N data, which are given here for two substances.

As usually defined, the stoichiometry N is a count of units in the complex or per binding partner.

Read-outs that look alike come from different tables or passages of the source.

Experiment in all cases: AUC
In experiment [1] the target is Klebsiella pneumoniae inosine-5'-monophosphate dehydrogenase (Klebsiella pneumoniae strain 52145).
Experiment [2] has the same target. The source holds these as a separate data set.
Experiment [3] deals with Bacillus anthracis inosine-5'-monophosphate dehydrogenase (Bacillus thuringiensis serovar monterrey BGSC 4AJ1 (sequence 100% identical to B. anthracis IMPDH)).
The target is the same in experiment [4]. The source holds these as a separate data set.

Take “Klebsiella pneumoniae inosine-5'-monophosphate dehydrogenase (enzyme)”: the values for the stoichiometry N in experiment [1] and in experiment [2] were 8 and 4, respectively.

Turning to “Bacillus anthracis inosine-5'-monophosphate dehydrogenase (from UniProt A0A0K0Q667 1-487) (enzyme)”, the stoichiometry N is 8 in experiment [3] and 4 in experiment [4].
